Laboratory results taken from patent US20220259289A1 (Janssen / Centocor, published 2022).

Assays:
human serum albumin [1] = target: T1, human serum albumin (human, UniProt P02768 25-609); assay: ELISA, bacterial lysate on plate-bound antigen, luminescence
T1 construct: Negative control antigen of the screening ELISA; also called HSA
In short: (§1)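 Biotinylated CD137-Fc, an unrelated Fc-fusion protein or human serum albumin captured 1 h on streptavidin plates blocked in Starting Block T20; diluted bacterial lysate applied 1 h. Bound binders detected with HRP-conjugated anti-Centyrin antibody (PAB25) for 1 h, then POD substrate read-out.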
T1 sequence (P02768 25-609 limits assumed): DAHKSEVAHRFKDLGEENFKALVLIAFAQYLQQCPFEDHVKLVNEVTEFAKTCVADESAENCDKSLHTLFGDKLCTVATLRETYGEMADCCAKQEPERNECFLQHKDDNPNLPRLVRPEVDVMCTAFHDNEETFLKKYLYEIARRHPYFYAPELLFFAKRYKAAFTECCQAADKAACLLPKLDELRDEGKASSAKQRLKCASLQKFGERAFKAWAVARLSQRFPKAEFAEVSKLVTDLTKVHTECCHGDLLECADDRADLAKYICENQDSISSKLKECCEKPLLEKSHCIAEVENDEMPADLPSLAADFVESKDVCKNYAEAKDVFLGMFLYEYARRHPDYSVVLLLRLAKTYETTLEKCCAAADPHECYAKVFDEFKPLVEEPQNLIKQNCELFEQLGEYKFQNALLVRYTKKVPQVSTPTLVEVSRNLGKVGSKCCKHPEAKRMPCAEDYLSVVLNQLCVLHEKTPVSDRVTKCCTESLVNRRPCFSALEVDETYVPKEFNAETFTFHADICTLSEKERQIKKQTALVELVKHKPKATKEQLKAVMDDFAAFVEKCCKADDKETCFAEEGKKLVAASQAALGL

[2] = target: T2, recombinant biotinylated human CD137 protein (Fc-fusion protein, R&D Systems 838-4B) (human, UniProt Q07011 24-186, biotinylated (site not stated)); assay: as above
T2 construct: Bought Fc fusion; The ELISA used the same antigen as the panning; also called CD137-Fc; biotinylated CD137; not shown: Fc part of the bought fusion protein
In short: as §1

[3] = target: unrelated Fc-fused recombinant protein (negative control); assay: as above
[4] = target: extracellular domain of human CD137 on the surface of CHO-K1 cells (human, UniProt Q07011 24-186); assay: flow cytometry on CHO-K1 cells with human CD137 ECD
Experimental: Cell surface binding was analyzed via flow cytometry. Cenyrins were prepared at a maximal concentration of 500 nM in the presence of 125 nM anti His-mIgG1 antibody and then serially diluted in PBS/1% FCS buffer. Samples were then applied to approx 100 000 CHO-Kl cells expressing the extracellular domain of human CD137 on their surface. Unbound Centyrin/Antibody complexes were washed away and bound FN3 domains were detected by the addition of goat anti mouse-FITC labeled antibody. Samples were then aquired by flow cytometry. Subsequently, Mean flurescence intensity was plotted against the log Centyrin concentration and EC50 values were calculated by nonlinear regression using GraphPad Prism.

[5] = target: unrelated Fc-fused recombinant protein; assay: ELISA, negative control Fc protein
human serum albumin [6] = target: T3, human serum albumin (human, UniProt P02768 25-609); assay: ELISA, negative control HSA
T3 construct: Negative control of the ELISA; also called HSA
Experimental: (§2) Streptavidin-coated Maxisorp plates (Nunc catalog 436110) were blocked for 1 h in Starting Block T20 (Pierce) and then coated with biotinylated CD137 (using same antigen as in panning) or negative controls (an unrelated Fc-fused recombinant protein and human serum albumin) for 1 h. Plates were rinsed with TBST and diluted lysate was applied to plates for 1 h. Following additional rinses, wells were treated with HRP-conjugated anti-Centyrin antibody (PAB25) for 1 h and then assayed with POD (Roche catalog 11582950001).
T3 sequence (P02768 25-609 limits assumed): as above

[7] = target: T4, recombinant biotinylated CD137 protein (Fc-fusion protein, R&D Systems 838-4B) (human, UniProt Q07011 24-186, biotinylated, sites not stated); assay: ELISA, lysate on biotinylated CD137-Fc
T4 construct: Bought Fc fusion; also called CD137-Fc
Experimental: as §2

| ELISA HSA (RLU) (human serum albumin [1]) | ELISA CD137-Fc (RLU) [2] [RLU] | ELISA Fc Control (RLU) [3] [RLU] | EC50 [4] [nM] | ELISA Fc Control (RLU) [5] [RLU] | ELISA HSA (RLU) (human serum albumin [6]) | ELISA CD137 (RLU) [7] [RLU] | Binder |
| --- | --- | --- | --- | --- | --- | --- | --- |
| 26600 | 573000 | 36200 |  |  |  |  | ISOP120BR5P1A10 (designed binder, not shown: small tags and cut ends, FN3 domain (Centyrin); tested as E. coli lysate) LPAPKNLVVSRVTEDSARLSWTEEDITHLRFDSFLIQYQESEKVGEAIVLTVPGSERSYDLTGLKPGTEYTVSIYGVYWTWWVRWNSNPLSAIFTT |
| 320 | 942000 | 480 |  |  |  |  | ISOP120BR5P1D8 (designed binder, not shown: small tags and cut ends, FN3 domain (Centyrin); tested as E. coli lysate) LPAPKNLVVSRVTEDSARLSWKNHTQEWEFDSFLIQYQESEKVGEAIVLTVPGSERSYDLTGLKPGTEYTVSIYGVPIAWLAWTSTSNPLSAIFTT |
| 320 | 1.02e+06 | 320 |  |  |  |  | ISOP120GR5P1E1 (designed binder, not shown: small tags and cut ends, FN3 domain (Centyrin); tested as E. coli lysate) LPAPKNLVVSRVTEDSARLSWTAPDAAFDSFIIQYAEDSSWGEAINLHVPGSERSYDLTGLKPGTEYHVHIYGVKGGEASNPLWAWFTT |
| 240 | 361000 | 720 |  |  |  |  | ISOP120BR5P1D2 (designed binder, not shown: small tags and cut ends, FN3 domain (Centyrin); tested as E. coli lysate) LPAPKNLVVSRVTEDSARLSWIRKHNHVKWFDSFLIQYQESEKVGEAIVLTVPGSERSYDLTGLKPGTEYTVSIYGVGFLIDTDDSNPLSAIFTT |
| 4960 | 882000 | 5680 |  |  |  |  | ISOP120BR5P1E2 (designed binder, not shown: small tags and cut ends, FN3 domain (Centyrin); tested as E. coli lysate) LPAPKNLVVSRVTEDSARLSWAQELDHFDSFLIQYQESEKVGEAIVLTVPGSERSYDLTGLKPGTEYTVSIYGVYWTWWVRWNSNPLSAIFTT |
| 720 | 875000 | 2000 |  |  |  |  | ISOP120BR5P1H3 (designed binder, not shown: small tags and cut ends, FN3 domain (Centyrin); tested as E. coli lysate) LPAPKNLVVSRVTEDSARLSWEESRQFFDSFLIQYQESEKVGEAIVLTVPGSERSYDLTGLKPGTEYTVSIYGVVHRAWLRWNGSNPLSAIFTT |
|  |  |  | 18.7 | 1440 |  |  | ISOP193ER9P1G11 (designed binder, not shown: small tags and cut ends) LPAPKNLVVSRVTEDSARLSWTAPDAAFDSFDIYYFEHPVGGEAIVLTVPGSERSYDLTGLKPGTEYLVTIYGVKGGYLSMPLSAIFTT |
| 240 | 306000 | 880 |  |  |  |  | ISOP120BR5P1C7 (designed binder, not shown: small tags and cut ends, FN3 domain (Centyrin); tested as E. coli lysate) LPAPKNLVVSRVTEDSARLSWNVTQKEFDSFLIQYQESEKVGEAIVLTVPGSERSYDLTGLKPGTEYTVSIYGVGNRYYTVYDSNPLSAIFTT |
| 480 | 542000 | 480 |  |  |  |  | ISOP120BR5P1F1 (designed binder, not shown: small tags and cut ends, FN3 domain (Centyrin); tested as E. coli lysate) LPAPKNLVVSRVTEDSARLSWTFHPTFEGFDSFLIQYQESEKVGEAIVLTVPGSERSYDLTGLKPGTEYTVSIYGVKWTVLRPWLSNPLSAIFTT |
| 560 | 485000 | 480 |  |  |  |  | ISOP120BR5P1G11 (designed binder, not shown: small tags and cut ends, FN3 domain (Centyrin); tested as E. coli lysate) LPAPKNLVVSRVTEDSARLSWTKRHFYTFDSFLIQYQESEKVGEAIVLTVPGSERSYYLTGLKPGTENTVSIYGVHGNHPYTDAPANPLSAIFTT |
| 560 | 1.22e+06 | 560 |  |  |  |  | ISOP120BR5P1D9 (designed binder, not shown: small tags and cut ends, FN3 domain (Centyrin); tested as E. coli lysate) LPAPKNLVVSRVTEDSARLSWTINSHIFDSFLIQYQESEKVGEAIVLTVPGSERSYDLTGLKPGTEYTVSIYGVWGTKYWQAQSNPLSAIFTT |
| 400 | 1.14e+06 | 240 |  |  |  |  | ISOP120BR5P1D3 (designed binder, not shown: small tags and cut ends, FN3 domain (Centyrin); tested as E. coli lysate) LPAPKNLVVSRVTEDSARLSWSEHPTPFATFDSFLIQYQESEKVGEAIVLTVPGSERSYDLTGLKPGTEYTVSIYGVWWVENHFPVSNPLSAIFTT |
|  |  |  | 10.5 | 2240 | 960 | 5.89e+06 | ISOP193AR9P1G11 (designed binder, not shown: small tags and cut ends) LPAPKNLVVSRVTEDSARLSWTNEQITKYGFDSFLIQYQESEKVGEAIVLTVPGSERSYDLTGLKPGTEYTVSIYGVGRHYTVYDSNPLSAIFTT |
